Data taken from paper PMC3185043, “A SILAC-Based Screen for Methyl-CpG Binding Proteins Identifies RBP-J as a DNA Methylation and Sequence-Specific Binding Protein”.

How the values were obtained:
[1] = target: MBD2b (GST-tagged, purified) (Homo sapiens, UniProt Q9UBB5 150-411); experiment: EMSA; multiple shifts; EMSA: 20 mM HEPES pH 7.9, 1 mM EDTA, 3 mM MgCl2, 10 mM beta-mercaptoethanol, 10% glycerol, 0.1% Triton X-100, 2 ug BSA, 10 ng poly(dI-dC), 30 min on ice; pull-down: 150 mM NaCl, 50 mM Tris pH 8.0, 0.25% NP40, 0.5 mM DTT, poly(dI-dC), 2 h 4 C; conditions: protein: recombinant; tags: GST; label: 32P
[2] = target: RBP-J (GST-tagged, purified) (Homo sapiens, UniProt Q06330 1-500); experiment: EMSA; multiple shifts; supershift with one of two antibodies; EMSA: 20 mM HEPES pH 7.9, 1 mM EDTA, 3 mM MgCl2, 10 mM beta-mercaptoethanol, 10% glycerol, 0.1% Triton X-100, 2 ug BSA, 10 ng poly(dI-dC), 30 min on ice; pull-down: 150 mM NaCl, 50 mM Tris pH 8.0, 0.25% NP40, 0.5 mM DTT, poly(dI-dC), 2 h 4 C; conditions: protein: recombinant; tags: His/GST; label: 32P
Sequence of RBP-J (GST-tagged, purified) (Q06330 whole entry): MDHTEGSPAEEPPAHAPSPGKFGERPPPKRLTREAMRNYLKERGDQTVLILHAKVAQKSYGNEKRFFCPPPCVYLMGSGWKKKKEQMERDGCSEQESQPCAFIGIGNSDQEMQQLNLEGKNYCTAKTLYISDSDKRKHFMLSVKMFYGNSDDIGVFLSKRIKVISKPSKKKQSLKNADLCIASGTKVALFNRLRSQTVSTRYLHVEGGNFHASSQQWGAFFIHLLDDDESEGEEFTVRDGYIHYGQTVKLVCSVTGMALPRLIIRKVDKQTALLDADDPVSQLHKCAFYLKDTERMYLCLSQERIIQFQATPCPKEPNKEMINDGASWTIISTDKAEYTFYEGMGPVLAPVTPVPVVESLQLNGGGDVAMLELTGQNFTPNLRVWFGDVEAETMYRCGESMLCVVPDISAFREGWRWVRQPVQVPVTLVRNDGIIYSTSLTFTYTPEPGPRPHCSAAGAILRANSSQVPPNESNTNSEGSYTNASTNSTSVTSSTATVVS

Sequence of MBD2b (GST-tagged, purified) (Q9UBB5 150-411): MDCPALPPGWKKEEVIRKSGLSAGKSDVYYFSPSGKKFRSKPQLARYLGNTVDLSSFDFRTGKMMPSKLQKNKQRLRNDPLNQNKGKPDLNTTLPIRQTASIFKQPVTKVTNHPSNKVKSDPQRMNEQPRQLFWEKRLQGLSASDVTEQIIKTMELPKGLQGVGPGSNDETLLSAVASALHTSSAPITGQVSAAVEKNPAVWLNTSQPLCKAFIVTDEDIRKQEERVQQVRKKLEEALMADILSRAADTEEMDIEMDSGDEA

B1: GSTP1 CpG-island oligo, methylated (EMSA) (dsDNA)
DNA 1: AAGCAGACACTGGCAGGTTTCGGCGGGAGTCCGCGGGACCCTCCAGAAGAGCGGCCGGCGCCGTGACCTAAGGCTAAGGCTCATA
DNA 2: TTTATGAGCCTTAGCCTTAGGTCACGGCGCCGGCCGCTCTTCTGGAGGGTCCCGCGGACTCCCGCCGAAACCTGCCAGTGTCTGC
modifications: 5-methylcytosine at CpG (M.SssI)
binding result [1]: binds | binding result [2]: binds
